The source of these data is US20190106487A1 (Sanofi, published 2019).

B1: P013.S.02.B.E03 (antibody, V domains shown)
VH: QSVEESGGRLVTPGTPLTLTCTVSGFSLSDYYMGWVRQAPGKGLEWIGTIDGGGSTYYASWAKGRFTVSKTSTTVDLTITSPTTEDTAIYFCARNYYAGLSDVFFGWWGQGTLVTVSS
VL: DVVMTQTPASVEAAVGGTVTIMCQASETIYSGLAWYQQKPGQPPKLLIYYTSSLASGVPSRFKGSGSGTEFTLTISDLESADAATYYCQTYYDSEGRSYGYNSFGGGTEVVVK
notes: rabbit monoclonal antibody; also called P013.A.00091.A10
B2: P013.S.02.B.A01 (antibody, V domains shown)
VH: QSVEESGGRLVTPGTPLTLTCTVSGFSLSSYYMSWVRQAPGKGLEWIGYIYAAGPITYYATWAKGRFTISKTSTTVDLKITSPTTEDTATYFCVRDGSGSGTYGYNGMDLWGPGTLVTVSS
VL: AYDMTQTPASVEAAVGGTVTIKCQASQSISNWLAWYQQKPGQRPKLLIYRASTLASGVSSRFKGSGSGTQFTLTISGVESADAATYYCQQGASTTDVDNVFGGGTEVVVK
notes: rabbit monoclonal antibody; also called P013.A.00087.A07
B3: P013.S.02.B.C04 (antibody, V domains shown)
VH: QQLEQSGGGLVKPGGSLELCCKASGFSLSSSYWICWVRQAPGKGLEWIGCIYAGSSGSTYYANWVNGRFTLSRDIDQSTGCLQLSSLTAADTAMYYCARSIVDFSSGWGDLWGQGTLVTVSS
VL: ALVMTQTPSPVSAAVGGTVTINCQASEDIYSNLAWYQQKPGQPPKLLMYGVSTLASGVPSRFSDSGSGTEFTLTISGLQSDDAATYYCLGVYTYISDVYYTFGGGTEVVVK
notes: rabbit monoclonal antibody; also called P013.A.00085.H07
B4: P013.S.01.B.G06 (antibody, V domains shown)
VH: QSLEESGGRLVTPGTPLTLTCTASGFTISSYYMSWVRQAPGKGLEWIGGIATDGNTYYANWAKGRFTVSRTSTTVDLKVTSPTAEDTATYFCARGGPAYSRGTHYAMDLWGPGTLVTVSS
VL: AYDMTQTPASVEVAVGGTVTIKCQASQSIYIYLAWYQQKPGQRPKQLIYDASKLASGVPSRFSGSGSGTEFTLTISGVESADAATYYCQQGATIWNVDNPFGGGTEVVVK
notes: rabbit monoclonal antibody; also called P013.A.00085.H05
B5: P013.S.01.B.H04 (antibody, V domains shown)
VH: QSVEESGGRLVTPGTPLTLTCTVSGFSLDSYAMGWVRQAPGKGLEWIGIINSYGSIYYASWAKGRFTISKTSTTVDLKMTSLTTEDTATYFCARSAYSNNGDRLHLWGQGTLVTVSS
VL: DIVMTQTPSPVSGAVGGTVTIKCQASEDIYSNLAWYQQKPGQPPKLLIYYVSTLESGVPSRFKGSRSGTDYTLTISDLESADAATYYCQCTEGGSGSDYTFGGGTEVVVK
notes: rabbit monoclonal antibody; also called P013.A.00014.G05
B6: P013.S.01.B.C02 (antibody, V domains shown)
VH: QSLEESGGDLVKPGASLTLTCTASGFSFSSSHYMCWVRQAPGKGLEWIACIYAGSSGNTYYANWAKGRFTISKTSSTTVTLQMTSLTAADTATYFCARVDASSSGSWDLWGPGTLVTVSS
VL: AIEMTQTPFSVSAAVGGTVTINCQASESIYSNLAWYQQILGQPPKLLIYAASLLASGVPSRFKGSGSGTEYTLTISGVQSADAATYYCQSASYSTGPDWTFGGGTEVVVE
notes: rabbit monoclonal antibody; also called P013.A.00014.C10
B7: P013.S.01.B.C05 (antibody, V domains shown)
VH: QSVEESGGRLVTPGTPLTLTCTVSGFSLSNYAMSWVRQAPGKGLEYIGIIDSGGSAYYATWARGRFTISRTSTTVDLKMTSPTTEDTATYFCARGGPAYSTNTHYTLDLWGPGTLVTVSS
VL: AFEMTQTPSSVSEPVGGTVTIKCQASQSIYNYLSWYQQKPGQPPKLLIYDASELASGVPSRFKGSGSGTEFTLTISGVQSDDAATYYCQQGATTYNIENVFGGGTEVVVK
notes: rabbit monoclonal antibody; also called P013.A.00045.E06
B8: P013.S.01.B.G05 (antibody, V domains shown)
VH: LEQSGGGAEGGLVKPGGSLELCCKASGFSLSSAYWICWVRQAPGKGLEWVGCIYADSSSITYYASWVNGRFTLSRDIDQSTGCLQLNSLTAADTAMYYCARDYGGSGYNFNLWGQGTLVTVSS
VL: ALVMTQTPSPVSAAVGGTVTISCQASEDIYSNLAWYQQKRGQPPKLLIYYASTLASGVPSRFSGSGSGTEFTLTISGLQSDDAATYYCLGVCTYINANGWDNAFGGGTEVVVK
notes: rabbit monoclonal antibody; also called P013.A.00088.C10
B9: P013.S.01.B.B02 (antibody, V domains shown)
VH: LEQSGGGAEGGLVKPGGSLELCCKASGFSLSSSYWICWVRQAPGKGLEWIGCIYTGSSGITYYASWVNGRFTLSRDIDQSTGCLQLNSLTAADTAMYYCAKDGPSTLFNFWGQGTLVTVSS
VL: ALVMTQTPSPVSAAVGGTVTINCQASEDIYSNLAWFQQKPGQPPKLLIYRASTLASGVPSRFKGSGSGTEFTLTISGLQSDDAATYYCLGVYTYPSADNAFGGGTEVVVR
notes: rabbit monoclonal antibody; also called P013.A.00014.B03

For the first assay, the target named is T1, rhIL-1RAcP/Fc Chimera (human, UniProt Q9NPH3 21-359).
T1 construct: also called P013_03; P013-03
T1 sequence (looked up): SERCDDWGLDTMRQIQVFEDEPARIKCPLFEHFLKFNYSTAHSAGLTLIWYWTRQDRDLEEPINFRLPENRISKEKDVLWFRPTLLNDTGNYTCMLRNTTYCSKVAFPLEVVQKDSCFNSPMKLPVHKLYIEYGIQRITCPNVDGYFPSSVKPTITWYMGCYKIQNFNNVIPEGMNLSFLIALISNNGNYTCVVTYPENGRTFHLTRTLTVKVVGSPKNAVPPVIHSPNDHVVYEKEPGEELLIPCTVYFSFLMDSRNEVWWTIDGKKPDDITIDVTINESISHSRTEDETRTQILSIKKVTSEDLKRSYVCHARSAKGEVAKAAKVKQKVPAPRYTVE
Put plainly: ELISA, primary supernatant, coated hu-IL-1RAcP-Fc. From the text: Microtiter plates were coated IL-1RACP and/or IL12Rβ1 protein (recombinant Fc chimeric conjugates of human IL-1RACP or IL12Rβ1). After a blocking process, specific antibodies from B-cell supernatants bind to the targets and are then detected by a POD-labeled anti-rabbit IgG antibody. The IL12Rβ1 binding was used as a counterscreen. IL-1RACP protein was tagged with a linker, huFc and His like the IL12Rβ1 protein. Antibodies which bind to the tag were positive in both assays, whereas antigen specific antibodies just bound to IL-1RACP and not to IL12Rβ1.
12.5 μL 0.5 μg/mL IL-1RACP protein in PBS was transferred to a microtiter plate, incubated and washed 3× with Wash Buffer. 90 μL Block Buffer was added to each well, incubated and washed. 12.5 μl Standard Antibody (rabbit mAb against IL-1RAcP, anti IL12Rbeta1 antibody: IL-12Rbeta1 antibody; GeneTex; Cat. No. GTX103917) or sample diluted in ELISA buffer was added, incubated and washed. 12.5 μl 1:5000 POD-Antibody (Anti-rabbit IgG, peroxidase-linked species-specific Fab2 fragment (from donkey) (ECL); assay dilution: 1:5000) in Elisa Buffer was added, incubated and washed. 15 μl TMB was added and 15 μl HCl was added after sufficient development. Absorbance (Optical Density O.D.) was read at 450 nm/620 nm.
As for B1, the “hu-IL1RaP ELISA (OD)” value worked out at 3.3 OD.
Turning to B2, the “hu-IL1RaP ELISA (OD)” value was found to be 3.8 OD.
Take B3: the “hu-IL1RaP ELISA (OD)” value is 2.7 OD.
With B4, the “hu-IL1RaP ELISA (OD)” value came out at 3.8 OD.
Still for that read-out and setting: under B5 stands 3.7 OD.
In the case of B6, the “hu-IL1RaP ELISA (OD)” value is 3.4 OD.
As for B7, the “hu-IL1RaP ELISA (OD)” value was 2.5 OD.
As for B8, the “hu-IL1RaP ELISA (OD)” value came to 3.3 OD.
On the same count and under the same terms, the same measure for B9: 3.6 OD.

A further assay deals with T2, human IL-1RAcP on 293T/17-FR cells (human, UniProt Q9NPH3 21-570).
T2 sequence (looked up): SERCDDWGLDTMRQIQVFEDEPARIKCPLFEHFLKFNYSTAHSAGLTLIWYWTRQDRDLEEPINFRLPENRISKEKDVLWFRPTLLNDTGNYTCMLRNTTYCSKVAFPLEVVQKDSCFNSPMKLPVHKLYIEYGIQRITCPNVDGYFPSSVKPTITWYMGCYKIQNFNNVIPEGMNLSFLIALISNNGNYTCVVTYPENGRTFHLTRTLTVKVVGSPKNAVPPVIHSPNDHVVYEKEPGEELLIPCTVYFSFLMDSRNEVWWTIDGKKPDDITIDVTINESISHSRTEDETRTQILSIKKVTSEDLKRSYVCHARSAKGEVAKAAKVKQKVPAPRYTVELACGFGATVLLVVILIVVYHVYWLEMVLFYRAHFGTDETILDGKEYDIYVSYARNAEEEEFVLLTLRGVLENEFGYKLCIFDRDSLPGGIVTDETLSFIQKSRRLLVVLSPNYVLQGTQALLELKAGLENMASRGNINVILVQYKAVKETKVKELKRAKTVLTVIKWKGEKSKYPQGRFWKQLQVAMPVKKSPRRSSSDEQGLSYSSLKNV
As to the kind of experiment: cell-based or functional assay.
Turning to B1, the “functional reporter gene assay (% inhibition), 0.04 µg/mL mAb” value worked out at 6%; the “functional reporter gene assay (% inhibition), 0.2 µg/mL mAb” value is 12%; the “functional reporter gene assay (% inhibition), 1 µg/mL mAb” value worked out at 16%; the “functional reporter gene assay (% inhibition), 5 µg/mL mAb” value worked out at 25%. The “primary supernatant functional assay (% inh.), NF-kB luciferase reporter” value came to 37%.
For B2 the same measures were 7%, 45%, 67%, 87% and 67%.
For B3, the “functional reporter gene assay (% inhibition), 0.04 µg/mL mAb” value is 29%; the “functional reporter gene assay (% inhibition), 0.2 µg/mL mAb” value stood at 26%; the “functional reporter gene assay (% inhibition), 1 µg/mL mAb” value was 40%; the “functional reporter gene assay (% inhibition), 5 µg/mL mAb” value came to 91%. In addition, the “primary supernatant functional assay (% inh.), NF-kB luciferase reporter” value came out at 65%.
For the molecule B4, the “functional reporter gene assay (% inhibition), 0.04 µg/mL mAb” value was determined as 69%; the “functional reporter gene assay (% inhibition), 0.2 µg/mL mAb” value was found to be 49%; the “functional reporter gene assay (% inhibition), 1 µg/mL mAb” value was determined as 94%; the “functional reporter gene assay (% inhibition), 5 µg/mL mAb” value was 96%. The “primary supernatant functional assay (% inh.), NF-kB luciferase reporter” value is 89%.
Turning to B5, the “functional reporter gene assay (% inhibition), 0.04 µg/mL mAb” value amounted to 10%; the “functional reporter gene assay (% inhibition), 0.2 µg/mL mAb” value is 49%; the “functional reporter gene assay (% inhibition), 1 µg/mL mAb” value was 49%; the “functional reporter gene assay (% inhibition), 5 µg/mL mAb” value came to 54%. Besides, the “primary supernatant functional assay (% inh.), NF-kB luciferase reporter” value came to 35%.
For B6, the “functional reporter gene assay (% inhibition), 0.04 µg/mL mAb” value was determined as 18%; the “functional reporter gene assay (% inhibition), 0.2 µg/mL mAb” value stood at 78%; the “functional reporter gene assay (% inhibition), 1 µg/mL mAb” value was 99%; the “functional reporter gene assay (% inhibition), 5 µg/mL mAb” value came to 98%. Also, the “primary supernatant functional assay (% inh.), NF-kB luciferase reporter” value is 82%.
For B7 the same measures were 67%, 74%, 87%, 95% and 27%.
As for B8, the “functional reporter gene assay (% inhibition), 0.04 µg/mL mAb” value is 21%; the “functional reporter gene assay (% inhibition), 0.2 µg/mL mAb” value was 50%; the “functional reporter gene assay (% inhibition), 1 µg/mL mAb” value is 82%; the “functional reporter gene assay (% inhibition), 5 µg/mL mAb” value stood at 93%. For the same molecule, the “primary supernatant functional assay (% inh.), NF-kB luciferase reporter” value was 81%.
In the case of B9, the “functional reporter gene assay (% inhibition), 0.04 µg/mL mAb” value stood at 75%; the “functional reporter gene assay (% inhibition), 0.2 µg/mL mAb” value came to 84%; the “functional reporter gene assay (% inhibition), 1 µg/mL mAb” value is 94%; the “functional reporter gene assay (% inhibition), 5 µg/mL mAb” value worked out at 98%. Besides, the “primary supernatant functional assay (% inh.), NF-kB luciferase reporter” value is 97%.

The target in a further assay is T1, rhIL-1RAcP/Fc Chimera. As to the kind of experiment: ELISA, recombinant purified mAb. A general note: An ELISA detects its analyte on a solid surface through an enzyme-linked reagent.
The term EC50 denotes the concentration at which the effect is half-maximal. In the case of B1, the EC50 came to 0.363 µg/mL.
For B2, the EC50 was determined as 0.073 µg/mL.
Consider B3, for which the EC50 worked out at 0.758 µg/mL.
Take B4: the EC50 stood at 0.115 µg/mL.
B5: the EC50 was determined as 0.062 µg/mL.
For B6, the EC50 worked out at 0.105 µg/mL.
On to B7, for which the EC50 was found to be 0.038 µg/mL.
Consider B8, for which the EC50 is 0.817 µg/mL.
Still for that read-out and setting: under B9 stands 0.175 µg/mL.
